From IntAct's records for PubMed 20543824

B1: Nuclear RNAi defective-3 protein (Caenorhabditis elegans), Q21691 (parent)
chain: MDLLDKVMGEMGSKPGSTAKKPATSASSTPRTNVWGTAKKPSSQQQPPKPLFTTPGSQQGSLGGRIPKREHTDRTGPDPKRKPLGGLSVPDSFNNFGTFRVQMNAWNLDISKMDERISRIMFRATLVHTDGRRFELSLGVSAFSGDVNRQQRRQAQCLLFRAWFKRNPELFKGMTDPAIAAYDAAETIYVGCSFFDVELTEHVCHLTEADFSPQEWKIVSLISRRSGSTFEIRIKTNPPIYTRGPNALTLENRSELTRIIEAITDQCLHNEKFLLYSSGTFPTKGGDIASPDEVTLIKSGFVKTTKIVDRDGVPDAIMTVDTTKSPFYKDTSLLKFFTAKMDQLTNSGGGPRGHNGGRERRDGGGNSRKYDDRRSPRDGEIDYDERTVSHYQRQFQDERISDGMLNTLKQSLKGLDCQPIHLKDSKANRSIMIDEIHTGTADSVTFEQKLPDGEMKLTSITEYYLQRYNYRLKFPHLPLVTSKRAKCYDFYPMELMSILPGQRIKQSHMTVDIQSYMTGKMSSLPDQHIKQSKLVLTEYLKLGDQPANRQMDAFRVSLKSIQPIVTNAHWLSPPDMKFANNQLYSLNPTRGVRFQTNGKFVMPARVKSVTIINYDKEFNRNVDMFAEGLAKHCSEQGMKFDSRPNSWKKVNLGSSDRRGTKVEIEEAIRNGVTIVFGIIAEKRPDMHDILKYFEEKLGQQTIQISSETADKFMRDHGGKQTIDNVIRKLNPKCGGTNFLIDVPESVGHRVVCNNSAEMRAKLYAKTQFIGFEMSHTGARTRFDIQKVMFDGDPTVVGVAYSLKHSAQLGGFSYFQESRLHKLTNLQEKMQICLNAYEQSSSYLPETVVVYRVGSGEGDYPQIVNEVNEMKLAARKKKHGYNPKFLVICTQRNSHIRVFPEHINERGKSMEQNVKSGTCVDVPGASHGYEEFILCCQTPLIGTVKPTKYTIIVNDCRWSKNEIMNVTYHLAFAHQVSYAPPAIPNVSYAAQNLAKRGHNNYKTHTKLVDMNDYSYRIKEKHEEIISSEEVDDILMRDFIETVSNDLNAMTINGRNFWA
partner: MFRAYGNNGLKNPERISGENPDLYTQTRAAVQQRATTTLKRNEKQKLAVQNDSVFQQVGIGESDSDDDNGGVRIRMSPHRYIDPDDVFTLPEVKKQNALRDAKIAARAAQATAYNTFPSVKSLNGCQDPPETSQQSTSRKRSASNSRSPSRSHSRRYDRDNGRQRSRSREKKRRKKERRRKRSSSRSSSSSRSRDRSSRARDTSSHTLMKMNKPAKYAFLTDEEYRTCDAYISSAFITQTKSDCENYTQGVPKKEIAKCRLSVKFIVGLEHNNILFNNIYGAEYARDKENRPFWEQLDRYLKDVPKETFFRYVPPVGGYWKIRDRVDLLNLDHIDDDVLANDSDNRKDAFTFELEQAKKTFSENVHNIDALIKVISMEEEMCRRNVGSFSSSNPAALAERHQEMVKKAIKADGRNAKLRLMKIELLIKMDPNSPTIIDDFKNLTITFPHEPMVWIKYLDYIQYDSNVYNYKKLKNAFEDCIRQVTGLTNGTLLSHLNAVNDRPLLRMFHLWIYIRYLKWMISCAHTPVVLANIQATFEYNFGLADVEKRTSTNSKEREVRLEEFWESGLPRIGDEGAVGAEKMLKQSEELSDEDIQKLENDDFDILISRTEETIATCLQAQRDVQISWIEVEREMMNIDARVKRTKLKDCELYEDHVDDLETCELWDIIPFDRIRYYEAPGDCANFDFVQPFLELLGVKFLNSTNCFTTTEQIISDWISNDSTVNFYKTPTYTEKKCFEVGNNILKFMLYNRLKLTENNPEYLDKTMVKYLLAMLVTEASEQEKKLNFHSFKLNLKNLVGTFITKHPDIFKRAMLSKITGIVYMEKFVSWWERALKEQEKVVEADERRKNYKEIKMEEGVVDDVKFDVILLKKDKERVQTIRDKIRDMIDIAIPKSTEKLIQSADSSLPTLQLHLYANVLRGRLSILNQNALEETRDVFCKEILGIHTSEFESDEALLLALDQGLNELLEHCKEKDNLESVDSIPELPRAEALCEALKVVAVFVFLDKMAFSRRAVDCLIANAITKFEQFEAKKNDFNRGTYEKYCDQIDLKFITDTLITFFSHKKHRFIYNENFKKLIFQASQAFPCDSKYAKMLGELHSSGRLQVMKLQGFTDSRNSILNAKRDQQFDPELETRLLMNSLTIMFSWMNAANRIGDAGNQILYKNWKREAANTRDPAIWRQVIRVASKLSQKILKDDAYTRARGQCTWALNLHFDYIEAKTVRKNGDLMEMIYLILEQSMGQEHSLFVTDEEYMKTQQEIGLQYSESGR

Variants of: B1
Settings: with nrde2_caeel nrde-2, G5EG51

Row | Variant | effect of a mutation on the interaction
1 | K80A;R81A;K82A | disrupting interaction
